Assays:
His-Gαi3 [1] = biological target: T1, His-Gαi3 (UniProt P08753 1-354); test: SEC
His-Gαi3 [2] = biological target: T1, His-Gαi3; test: cell-based or functional assay
His-Gαi3 [3] = biological target: T1, His-Gαi3

T1 sequence (P08753 whole entry): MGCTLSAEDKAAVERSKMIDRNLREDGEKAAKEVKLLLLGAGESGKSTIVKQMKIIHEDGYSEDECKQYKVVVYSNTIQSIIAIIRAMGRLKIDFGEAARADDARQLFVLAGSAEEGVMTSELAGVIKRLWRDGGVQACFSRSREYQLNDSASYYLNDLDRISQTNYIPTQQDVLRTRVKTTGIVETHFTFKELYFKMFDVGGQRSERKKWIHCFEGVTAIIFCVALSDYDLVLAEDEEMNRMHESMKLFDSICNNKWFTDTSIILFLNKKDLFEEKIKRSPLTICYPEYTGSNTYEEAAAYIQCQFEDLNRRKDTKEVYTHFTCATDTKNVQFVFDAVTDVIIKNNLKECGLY

B1: His-GIV-CTs (aa 1660–1870) (domain or fragment, UniProt Q3V6T2-3 1660-1870, looked up)
chain: SETLESRHHKIKTGSPGSEVVTLQQFLEESNKLTSVQIKSSSQENLLDEVMKSLSVSSDFLGKDKPVSCGLARSVSGKTPGDFYDRRTTKPEFLRPGPRKTEDTYFISSAGKPTPGTQGKIKLVKESSLSRQSKDSNPYATLPRASSVISTAEGTTRRTSIHDFLTKDSRLPISVDSPPAAADSNTTAASNVDKVQESRNSKSRSREQQSS
- stoichiometry N (His-Gαi3 [1]): 1 His-Gαi3:His-GIV-CTs
- steady-state GTPase activity of His-Gαi3 (50 nM) alone with 0-2 μM His-GIV-CTs (His-Gαi3 [2]): ~3 fold
- Kd (His-Gαi3 [3]): ~300 nM

Reference: publication PMC3046063 (Molecular Biology of the Cell, 2011)
